Results published in article PMC6702468.

Substrate: O[Si](O)(O)O
Experiment: cells, lysate or membranes
Details: unit not printed beside Km, taken from [Si]ext in mM

| Protein | Km (3 hr exposure in modified Barth's solution pH 7.4, room temperature, H2O-injected background subtracted, transport, R2 = 0.90, pH 7.4) | Km (otherwise as WT, paper states a linear equation fits best (R2 = 0.99) and Km lies far above the tested range (up to 2 mM)) |
| --- | --- | --- |
| NsLsi1 (NsNIP2-1) (Nicotiana sylvestris) (protein) MESERGNSTENKKPNELVSVENPKSNLSFRYILIFFQEHYPPGFLKKVIAEVIATYLLVFVTCGAAAISASDEHKVSRLGASVAGGLIVTVMIYAVGHISGAHMNPAVTFAFAAVRHFPWRQVPPYAAAQLTGATSAAFTLRVLLHPIKHVGTTTPSGSDIQALIMEIVVTFSMMFITSAVATDTKAIGELAGMAVGSAVCITSILAGPVSGGSMNPARTIGPAMASNDYRGIWVYIIGPVCGTLLGAWSYNFIRVTDKPVHAIAPGQSFSFKLRRMKSNDEEQGV | 0.94 ± 0.30 mM |  |
| NsLsi1 (NsNIP2-1) (Nicotiana sylvestris; P125F) (protein) MESERGNSTENKKPNELVSVENPKSNLSFRYILIFFQEHYPPGFLKKVIAEVIATYLLVFVTCGAAAISASDEHKVSRLGASVAGGLIVTVMIYAVGHISGAHMNPAVTFAFAAVRHFPWRQVPFYAAAQLTGATSAAFTLRVLLHPIKHVGTTTPSGSDIQALIMEIVVTFSMMFITSAVATDTKAIGELAGMAVGSAVCITSILAGPVSGGSMNPARTIGPAMASNDYRGIWVYIIGPVCGTLLGAWSYNFIRVTDKPVHAIAPGQSFSFKLRRMKSNDEEQGV |  | 12.83 ± 8.49 mM |
